Patent US20200377590A1 (Hoffmann-La Roche, published 2020)

T1: CD81 (UniProt P60033 1-236, limits assumed)
T1 construct: whole, on cells; also called CD81 receptor
T1 sequence (looked up): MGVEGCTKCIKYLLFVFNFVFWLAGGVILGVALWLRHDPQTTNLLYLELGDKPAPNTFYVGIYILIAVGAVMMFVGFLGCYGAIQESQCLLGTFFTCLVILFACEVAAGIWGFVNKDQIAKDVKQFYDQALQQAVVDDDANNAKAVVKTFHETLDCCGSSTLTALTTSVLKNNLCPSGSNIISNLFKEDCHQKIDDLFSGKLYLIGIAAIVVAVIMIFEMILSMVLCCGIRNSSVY


target: T1, CD81; assay: cell ELISA;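 further: antibody binding to HuH7 cells expressing CD81 versus a CD81-negative HuH7 control line, bound antibody detected by secondary reagent, absorbance at 450 nm with 620 nm reference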
Method: (§1) For the binding cell ELISA assay, HuH7-Rluc-H3 (positive cell line expressing CD81) and HuH7-Rluc-L1 (negative control cell line) were propagated in F-12 DMEM medium with 10% FCS at 37° C. and 5% CO₂. On day 1, the cells were trypsinized at approximately 90% confluence and resuspended at 4×10⁵ cells/mL. […] On day 2, the antibody samples to be tested were prepared in a separate polypropylene round bottom plate with a twofold desired concentration with a final volume of 120 μl. All of the assay samples were diluted in cell culture medium. […] After fixation, each well was washed 3 times with 200 μL PBS/0.05% Tween. The secondary incubation step for detection of bound anti-CD81 antibodies was performed for 2 h at room temperature on a reciprocal shaker. […] Each well was washed three times with 200 μL PBS/0.05% Tween to remove unbound antibodies. […] The absorbance was read using the ELISA Tecan reader at 450 nm with 620 nm reference wavelength.

| Binder | ELISA data |
| --- | --- |
| CD81K04 HC JA_GG-14-hVH_1_69-GA / LC GG-04-hVK_4_1 (antibody, V domains shown, human constant region) VH: QVQLVQSGAEVKKPGSSVKVSCKASGYTFSSSWMNWVRQAPGQGLEWMGRIYSGDGDAIYNGKFKGKATITADESTSTAYMELSSLRSEDTAVYYCAREGKTGDLLLRSWGQGTLVTVSS VL: DIVMTQSPDSLAVSLGERATINCKSSKSVSTSIYSYLAWYQQKPGQPPKLLIYYASTRESGVPDRFSGSGSGTDFTLTISSLQAEDVAVYYCQHSREFPYTFGQGTKLEIK | 0.12 |

target: T1, CD81; assay: cell ELISA; remark: another data set of the same source;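 further: antibody binding to HuH7 cells expressing CD81 versus a CD81-negative HuH7 control line, bound antibody detected by secondary reagent, absorbance at 450 nm with 620 nm reference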

| Binder | ELISA data |
| --- | --- |
| CD81K04 HC JA_GG-14-hVH_1_69-GA / LC GG-04-hVK_4_1 (antibody, V domains shown, human constant region) VH: QVQLVQSGAEVKKPGSSVKVSCKASGYTFSSSWMNWVRQAPGQGLEWMGRIYSGDGDAIYNGKFKGKATITADESTSTAYMELSSLRSEDTAVYYCAREGKTGDLLLRSWGQGTLVTVSS VL: DIVMTQSPDSLAVSLGERATINCKSSKSVSTSIYSYLAWYQQKPGQPPKLLIYYASTRESGVPDRFSGSGSGTDFTLTISSLQAEDVAVYYCQHSREFPYTFGQGTKLEIK | 0.107 |

target: T1, CD81; assay: cell ELISA; remark: another data set of the same source;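 further: antibody binding to HuH7 cells expressing CD81 versus a CD81-negative HuH7 control line, bound antibody detected by secondary reagent, absorbance at 450 nm with 620 nm reference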
Method: as §1

| Binder | ELISA data |
| --- | --- |
| CD81K13 HC 04-hVH_1_69 / LC CD81K13 (antibody, V domains shown, human constant region) VH: EVQLVESGGGLVQPGRSLRLSCTASGFNFKDSYLHWVRQAPGQGLEWMGRIDTGNGNVKFDPKFQGRVTITADESTSTAYMELSSLRSEDTAVYYCVPYGYGFHSWGQGTLVTVSS VL: DIQMTQSPASLSVSVGETVTITCRASENIYRTLAWYLQKQGKSPQLLVYGATTLADGVPSRFSGSGSGTQYYLKINSLQSEDFGTYHCQHFWGTPWTFGGGTKVEIK | 0.776 |
| CD81K13 HC 04-hVH_1_69 / LC 01-hVK_3_15 (antibody, V domains shown, human constant region) VH: EVQLVESGGGLVQPGRSLRLSCTASGFNFKDSYLHWVRQAPGQGLEWMGRIDTGNGNVKFDPKFQGRVTITADESTSTAYMELSSLRSEDTAVYYCVPYGYGFHSWGQGTLVTVSS VL: EIVMTQSPATLSVSPGERATLSCRASENIYRTLAWYQQKPGQAPRLLIYGATTRATGIPARFSGSGSGTEFTLTISSLQSEDFGVYYCQHFWGTPWTFGQGTKVEIK | 0.513 |
| CD81K13 HC 04-hVH_1_69 / LC 1c-hVK_3_15 (antibody, V domains shown, human constant region) VH: EVQLVESGGGLVQPGRSLRLSCTASGFNFKDSYLHWVRQAPGQGLEWMGRIDTGNGNVKFDPKFQGRVTITADESTSTAYMELSSLRSEDTAVYYCVPYGYGFHSWGQGTLVTVSS VL: EIVMTQSPATLSVSPGERATLSCRASENIYRTLAWYQQKPGQAPRLLIYGATTLADGIPARFSGSGSGTEFTLTISSLQSEDFGVYYCQHFWGTPWTFGQGTKVEIK | 0.395 |
| CD81K13 HC 04-hVH_1_69 / LC 1b-hVK_3_15 (antibody, V domains shown, human constant region) VH: EVQLVESGGGLVQPGRSLRLSCTASGFNFKDSYLHWVRQAPGQGLEWMGRIDTGNGNVKFDPKFQGRVTITADESTSTAYMELSSLRSEDTAVYYCVPYGYGFHSWGQGTLVTVSS VL: EIVMTQSPATLSVSPGERATLSCRASENIYRTLAWYQQKPGQAPRLLIYGATTLADGIPARFSGSGSGTEFTLTISSLQSEDFAVYYCQHFWGTPWTFGQGTKVEIK | 0.277 |
| CD81K13 HC 06-hVH_1_3 / LC 5b-hVK_1_39-GA (antibody, V domains shown, human constant region) VH: QVQLVQSGAEVKKPGASVKVSCKASGYTFKDSYLHWVRQAPGQRLEWMGRIDTGNGNVKFDPKFQGRVTITTDTSASTAYMELSSLRSEDTAVYYCAPYGYGFHSWGQGTLVTVSS VL: DIQMTQSPSSLSASVGDRVTITCRASENIYRTLAWYQQKPGKAPKLLIYGATTLADGVPSRFSGSGSGTDFTLTISSLQPEDFATYYCQHFWGTPWTFGQGTKVEIK | 0.37 |
| CD81K13 HC 04-hVH_1_69 / LC 5b-hVK_1_39 (antibody, V domains shown, human constant region) VH: EVQLVESGGGLVQPGRSLRLSCTASGFNFKDSYLHWVRQAPGQGLEWMGRIDTGNGNVKFDPKFQGRVTITADESTSTAYMELSSLRSEDTAVYYCVPYGYGFHSWGQGTLVTVSS VL: DIQMTQSPSSLSASVGDRVTITCRASENIYRTLAWYQQKPGKAPKLLIYGATTLADGVPSRFSGSGSGTDFTLTISSLQPEDFATYYCQHFWGTPWTFGQGTKVEIK | 0.428 |
| CD81K13 HC 04-hVH_1_69 / LC 05-hVK_1_39 (antibody, V domains shown, human constant region) VH: EVQLVESGGGLVQPGRSLRLSCTASGFNFKDSYLHWVRQAPGQGLEWMGRIDTGNGNVKFDPKFQGRVTITADESTSTAYMELSSLRSEDTAVYYCVPYGYGFHSWGQGTLVTVSS VL: DIQMTQSPSSLSASVGDRVTITCRASENIYRTLAWYQQKPGKAPKLLIYAATTLASGVPSRFSGSGSGTDFTLTISSLQPEDFATYYCQHFWGTPWTFGQGTKVEIK | 0.776 |
| CD81K13 HC 04-hVH_1_69 / LC 5b-hVK_1_39-GA (antibody, V domains shown, human constant region) VH: EVQLVESGGGLVQPGRSLRLSCTASGFNFKDSYLHWVRQAPGQGLEWMGRIDTGNGNVKFDPKFQGRVTITADESTSTAYMELSSLRSEDTAVYYCVPYGYGFHSWGQGTLVTVSS VL: DIQMTQSPSSLSASVGDRVTITCRASENIYRTLAWYQQKPGKAPKLLIYGATTLADGVPSRFSGSGSGTDFTLTISSLQPEDFATYYCQHFWGTPWTFGQGTKVEIK | 0.403 |
| CD81K13 HC 04-hVH_1_69 / LC 04-hVK_1_9 (antibody, V domains shown, human constant region) VH: EVQLVESGGGLVQPGRSLRLSCTASGFNFKDSYLHWVRQAPGQGLEWMGRIDTGNGNVKFDPKFQGRVTITADESTSTAYMELSSLRSEDTAVYYCVPYGYGFHSWGQGTLVTVSS VL: DIQLTQSPSFLSASVGDRVTITCRASENIYRTLAWYQQKPGKAPKLLIYAATTLASGVPSRFSGSGSGTEFTLTISSLQPEDFGTYYCQHFWGTPWTFGQGTKVEIK | 0.459 |
| CD81K13 HC 04-hVH_1_69 / LC 03-hVK_1_9 (antibody, V domains shown, human constant region) VH: EVQLVESGGGLVQPGRSLRLSCTASGFNFKDSYLHWVRQAPGQGLEWMGRIDTGNGNVKFDPKFQGRVTITADESTSTAYMELSSLRSEDTAVYYCVPYGYGFHSWGQGTLVTVSS VL: DIQLTQSPSFLSASVGDRVTITCRASENIYRTLAWYQQKPGKAPKLLIYAATTLASGVPSRFSGSGSGTEFTLTISSLQPEDFATYYCQHFWGTPWTFGQGTKVEIK | 0.52 |
| CD81K13 HC 04-hVH_1_69 / LC 06-hVK_1_39 (antibody, V domains shown, human constant region) VH: EVQLVESGGGLVQPGRSLRLSCTASGFNFKDSYLHWVRQAPGQGLEWMGRIDTGNGNVKFDPKFQGRVTITADESTSTAYMELSSLRSEDTAVYYCVPYGYGFHSWGQGTLVTVSS VL: DIQMTQSPSSLSASVGDRVTITCRASENIYRTLAWYQQKPGKAPKLLIYAATTLASGVPSRFSGSGSGTDFTLTISSLQPEDFGTYYCQHFWGTPWTFGQGTKVEIK | 0.386 |
| CD81K13 HC 07-hVH_1_3 / LC 5b-hVK_1_39 (antibody, V domains shown, human constant region) VH: QVQLVQSGAEVKKPGASVKVSCKASGYTFKDSYLHWVRQAPGQGLEWMGRIDTGNGNVKFDPKFQGRVTITTDTSASTAYMELSSLRSEDTAVYYCAPYGYGFHSWGQGTLVTVSS VL: DIQMTQSPSSLSASVGDRVTITCRASENIYRTLAWYQQKPGKAPKLLIYGATTLADGVPSRFSGSGSGTDFTLTISSLQPEDFATYYCQHFWGTPWTFGQGTKVEIK | 0.448 |
| CD81K13 HC 07-hVH_1_3 / LC 04-hVK_1_9 (antibody, V domains shown, human constant region) VH: QVQLVQSGAEVKKPGASVKVSCKASGYTFKDSYLHWVRQAPGQGLEWMGRIDTGNGNVKFDPKFQGRVTITTDTSASTAYMELSSLRSEDTAVYYCAPYGYGFHSWGQGTLVTVSS VL: DIQLTQSPSFLSASVGDRVTITCRASENIYRTLAWYQQKPGKAPKLLIYAATTLASGVPSRFSGSGSGTEFTLTISSLQPEDFGTYYCQHFWGTPWTFGQGTKVEIK | 0.141 |
| CD81K13 HC 07-hVH_1_3 / LC 07-hVK_1_27 (antibody, V domains shown, human constant region) VH: QVQLVQSGAEVKKPGASVKVSCKASGYTFKDSYLHWVRQAPGQGLEWMGRIDTGNGNVKFDPKFQGRVTITTDTSASTAYMELSSLRSEDTAVYYCAPYGYGFHSWGQGTLVTVSS VL: DIQMTQSPSSLSASVGDRVTITCRASENIYRTLAWYQQKPGKVPKLLIYAATTLASGVPSRFSGSGSGTDFTLTISSLQPEDVGTYYCQKFWGTPWTFGQGTKVEIK | 0.073 |
| CD81K13 HC 07-hVH_1_3 / LC 03-hVK_1_9 (antibody, V domains shown, human constant region) VH: QVQLVQSGAEVKKPGASVKVSCKASGYTFKDSYLHWVRQAPGQGLEWMGRIDTGNGNVKFDPKFQGRVTITTDTSASTAYMELSSLRSEDTAVYYCAPYGYGFHSWGQGTLVTVSS VL: DIQLTQSPSFLSASVGDRVTITCRASENIYRTLAWYQQKPGKAPKLLIYAATTLASGVPSRFSGSGSGTEFTLTISSLQPEDFATYYCQHFWGTPWTFGQGTKVEIK | 0.331 |
| CD81K13 HC 06-hVH_1_3 / LC 06-hVK_1_39 (antibody, V domains shown, human constant region) VH: QVQLVQSGAEVKKPGASVKVSCKASGYTFKDSYLHWVRQAPGQRLEWMGRIDTGNGNVKFDPKFQGRVTITTDTSASTAYMELSSLRSEDTAVYYCAPYGYGFHSWGQGTLVTVSS VL: DIQMTQSPSSLSASVGDRVTITCRASENIYRTLAWYQQKPGKAPKLLIYAATTLASGVPSRFSGSGSGTDFTLTISSLQPEDFGTYYCQHFWGTPWTFGQGTKVEIK | 0.323 |
| CD81K13 HC 07-hVH_1_3 / LC 06-hVK_1_39 (antibody, V domains shown, human constant region) VH: QVQLVQSGAEVKKPGASVKVSCKASGYTFKDSYLHWVRQAPGQGLEWMGRIDTGNGNVKFDPKFQGRVTITTDTSASTAYMELSSLRSEDTAVYYCAPYGYGFHSWGQGTLVTVSS VL: DIQMTQSPSSLSASVGDRVTITCRASENIYRTLAWYQQKPGKAPKLLIYAATTLASGVPSRFSGSGSGTDFTLTISSLQPEDFGTYYCQHFWGTPWTFGQGTKVEIK | 0.269 |
| CD81K13 HC 07-hVH_1_3 / LC 5b-hVK_1_39-GA (antibody, V domains shown, human constant region) VH: QVQLVQSGAEVKKPGASVKVSCKASGYTFKDSYLHWVRQAPGQGLEWMGRIDTGNGNVKFDPKFQGRVTITTDTSASTAYMELSSLRSEDTAVYYCAPYGYGFHSWGQGTLVTVSS VL: DIQMTQSPSSLSASVGDRVTITCRASENIYRTLAWYQQKPGKAPKLLIYGATTLADGVPSRFSGSGSGTDFTLTISSLQPEDFATYYCQHFWGTPWTFGQGTKVEIK | 0.363 |
| CD81K13 HC 07-hVH_1_3 / LC 05-hVK_1_39 (antibody, V domains shown, human constant region) VH: QVQLVQSGAEVKKPGASVKVSCKASGYTFKDSYLHWVRQAPGQGLEWMGRIDTGNGNVKFDPKFQGRVTITTDTSASTAYMELSSLRSEDTAVYYCAPYGYGFHSWGQGTLVTVSS VL: DIQMTQSPSSLSASVGDRVTITCRASENIYRTLAWYQQKPGKAPKLLIYAATTLASGVPSRFSGSGSGTDFTLTISSLQPEDFATYYCQHFWGTPWTFGQGTKVEIK | 0.4 |
| CD81K13 HC 06-hVH_1_3 / LC 07-hVK_1_27 (antibody, V domains shown, human constant region) VH: QVQLVQSGAEVKKPGASVKVSCKASGYTFKDSYLHWVRQAPGQRLEWMGRIDTGNGNVKFDPKFQGRVTITTDTSASTAYMELSSLRSEDTAVYYCAPYGYGFHSWGQGTLVTVSS VL: DIQMTQSPSSLSASVGDRVTITCRASENIYRTLAWYQQKPGKVPKLLIYAATTLASGVPSRFSGSGSGTDFTLTISSLQPEDVGTYYCQKFWGTPWTFGQGTKVEIK | 0.078 |
